# Laboratory results as given in the nanobody polyreactivity screen of Harvey et al. (2022).
# Test: yeast display, Sf9 membrane polyspecificity reagent, FACS + sequencing; frameworks hold sequencing errors
# How it was run: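 Sorting gates, low and high (top ~1%), were placed on anti-HA fluorescence to track expression and on streptavidin fluorescence to track reagent binding. A clone's polyreactivity label is taken from the gate it came out of. The reagent was 10% biotinylated, detergent-solubilized Sf9 membrane, applied for 1 hour at 4 °C to galactose-induced yeast display cells.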
row,Sequence,polyreactivity (PSR sort gate)
1,QVQLVESGGGLVQAGGSLRLSCAASGFTFGYYAMGWYRQAPGKERELVAAISWSGSSTYYSDSVKGRFTISRDNAKNTVYLQMNSLKPEATAVYYCAAELGDAYYYWGQGTQVTVSS,high polyreactivity
2,QVQLVESGGGLVQAGGSLRLSCAASGFTFGYYAMGWYRQAPGKERELVAAITNSGGSTYYADSVKGRFTISRDNAKNTVYLQMNSLKPEDTAVYYCAAEISILPFVTPDTIYGYWGQGTQVTVSS,low polyreactivity
3,QVQLVESGGGLVQAGGSLRLSCAASGFTFGYYAMGWYRQAPGKERELVAAITWSGGRTYYADSVKGRFTISRDNAKNTVYLQMNSLKPEDTAVYYCAVETLWQGSEYWGQGTQVTVSS,low polyreactivity
4,QVQLVESGGGLVQAGGSLRLSCAASGFTFGYYAMGWYRQAPGKERELVATISYGGGSTYYADSVKGRFTISRDNAKNTVYLQMNSLKPEDSAVYYCAASYLVQAPVSGYVYRMYYWGQGTQVTVSS,high polyreactivity
5,QVQLVESGGGLVQAGGSLRLSCAASGFTFGYYGMGWYRQAPGKERELVAAISWSGGSTYYADSVKGRFTISRDNAKNTVYLQMNSLKPEDTAVDYCNADYAGFYQRRYIEDDYWGQGTQVTVSS,low polyreactivity
6,QVQLVESGGGLVQAGGSLRLSCAASGFTFGYYVMGWYRQAPGKERELVAAITSGGSTYYADSVKGRFTISRDNAKNTVYLQMNSLKREDTAVYYCNKYGVVLPGFDYWGQGTQVTVSS,high polyreactivity
7,QVQLVESGGGLVQAGGSLRLSCAASGFTFHDYAMGWYRQAPGKERELVAAITKSGGRTYYADSVKGRFTISRDNAKNTVYLQMNSLKPEDTAVYYCAAASYRSQYDYYYWGQGTQVTVSS,high polyreactivity
8,QVQLVESGGGLVQAGGSLRLSCAASGFTFHDYVMAWYRQAPGKERELVAAISRSGGSTYYADSVKGRFTISRDNAKHTVYLQMNSLIPEDTAVYYCAAREYTTGGWRYNYWGQGTQVTVSS,high polyreactivity
9,QVQLVESGGGLVQAGGSLRLSCAASGFTFHNYAMGWYRQAPGKERDFVAAITRNTASTYYADSVKGRFTISRDNAKNTVYLQMNSLKPEDTAVYYCNASRVVYRQAYLYGYDYWGQGTQVTVSS,low polyreactivity
10,QVQLVESGGGLVQAGGSLRLSCAASGFTFHNYAMGWYRQAPGKEREFVAAITRNTASTYYADSVKGRFTISRDNAKNTVYLQMNSLNPEDTAVYYCAATDKKHRTAYDSWGQGTQVTVSS,low polyreactivity
11,QVQLVESGGGLVQAGGSLRLSCAASGFTFHVYAMGWSRQAPGKERELVAAISTGDDTTFYADSVKGRLTISRDNAKNTVYLQMNSLKPEDTAVYYCAAAYGTPYGGYDYWGQGTQVTVSS,low polyreactivity
12,QVQLVESGGGLVQAGGSLRLSCAASGFTFHYYTMGWYRQAPGKEREFVAAISKSGGRTYYADSVKGRFTISRDNAKNTVYLQMNSLKPEDTAVYYCATVGYWRNRHDYWGQGTQVTVSS,high polyreactivity
13,QVQLVESGGGLVQAGGSLRLSCAASGFTFIFNAMGWYRQAPGKERELVATISWGGGSTYYADSVKGRFTISRDNAKNTVYLQMNSLKPEDTAVYYCNADGYTLWYEYDYWGQGTQVTVSS,low polyreactivity
14,QVQLVESGGGLVQAGGSLRLSCAASGFTFIGNAMGWYRQAPGKERELVAAISSSGGRTYYADSVKGRFTISRDNAKNTVDLQMNSLKPEDTAVYYCATRQYRGVYYWGQGTQVTVSS,high polyreactivity
15,QVQLVESGGGLVQAGGSLRLSCAASGFTFIGYAMGWYRQAPGKEREFVAAITSGGSTYYADSVKGRFTISRDNAKNTVYLQMNSLKPEDTAVYYCAARSVYTASYRRVWINPQLDYWGQGTQVTVSS,high polyreactivity
16,QVQLVESGGGLVQAGGSLRLSCAASGFTFIGYAMGWYRQAPGKERELVAAITISGGSTYYADSVKGRFTISRDNAKNTVYLQMNSLKPEDTAVYYCNVYRLAAFYSLRGYRYDYWGQGTQVTVSS,high polyreactivity
17,QVQLVESGGGLVQAGGSLRLSCAASGFTFIQYDMGWYRQAPGKERELVAAISSSGGSTYYADSVNGRFTISRDNAKNTFYLQMNSLKPEDTGVYYCAADPWVRLEYDYWGQGTQVTVSS,low polyreactivity
18,QVQLVESGGGLVQAGGSLRLSCAASGFTFIRNAMGWYRPAPGKERELVAAISTSGGTTYYADSVKGRFTISRDNAKNTVYLQMNSLKPEDTAVYYCNKGIGRSDPDYRYYYWGQGTQVTVSS,high polyreactivity
19,QVQLVESGGGLVQAGGSLRLSCAASGFTFIRNAMGWYRQAPGKERELVAAISKRGGSTNYADSVKGRFTISRDNAKTTVYLLMNSLKPEDTAVYYCAADVDTRSSSGYWGQGTQVTVSS,low polyreactivity
20,QVQLVESGGGLVQAGGSLRLSCAASGFTFIRYAMGWYRQAPGKERELVARITSGGSTYYADSVKGRFTISRDNAKNTVYLQMNSLKPEDTAVYYCNADKWYIIQGYYWPGYEYWGQGTQVTVSS,low polyreactivity
21,QVQLVESGGGLVQAGGSLRLSCAASGFTFIRYAMGWYSQAAGKDRELVARITSSGSSTYADSVKGRFTISRDKAKNTVYLQMNSLKPEDTAVYYCAAKVHTRRRFDYWGQGTQVTVSS,high polyreactivity
22,QVQLVESGGGLVQAGGSLRLSCAASGFTFISNAMGWYRKAPGKERELVAAISSSGGRTYYADSVKGRFTISRDNAKNTVYLQMNSLKPEDTAVYYCNADRSLLYSRKIEYDYWGQGTQVTVSS,low polyreactivity

row,Sequence,polyreactivity (PSR sort gate)
1,QVQLVESGGGLVQAGGSLRLSCAASGFTFISYGMGWYRQAPGKEREFVAAISYSGTGTYYADSVKVRFTISRDNAKNTVYLQMNSLKPEDTAVYYCAVYSRDFRRYDYWGQGTQVTVSS,high polyreactivity
2,QVQLVESGGGLVQAGGSLRLSCAASGFTFIWYAMGWYRQAPGKETELVATISWNGGRTYYADSVKGRFTISRDNANNTVYLQMNSLKPEDTAVYYCAADQGVYRTYWFDYWGQGTQVAVSS,high polyreactivity
3,QVQLVESGGGLVQAGGSLRLSCAASGFTFIYYALGWYRQAPGKERELLATISYDGGSTYYSDSVKGRFTISRDNAKNTVYLQMNSLKPEDTAVYYCNADFADDKYYLFESELEYDYWGQGTQVTVSS,low polyreactivity
4,QVQLVESGGGLVQAGGSLRLSCAASGFTFIYYAMGWYRQAPGKERELVAAISRRGGSTYYADSVKGRFTISRDNAKNTVYLQMNSLKPEDTAVYYCAADYTSAILRSDYWGQGTQVTVSS,high polyreactivity
5,QVQLVESGGGLVQAGGSLRLSCAASGFTFIYYAMGWYRQAPGKERELVAGISSGGRTSYADSVKGRFTISRDNAKNTVYLQMNSLKPEDTAVYYCATPVSRFRRTEYGYYYWGQGTQVTVSS,high polyreactivity
6,QVQLVESGGGLVQAGGSLRLSCAASGFTFKFYAMGWYRQAPGKEREFVAAISHSGGRTYYADSVKGRFTISSDNAKNTVYLQLNILKPEDTAFYYCAAAEGGGLVTYDYWGQGTQVTVSS,low polyreactivity
7,QVQLVESGGGLVQAGGSLRLSCAASGFTFKGYTMGWYRQAPGKERELVAAISRSGGRTYYADSVKGRFTISRDNAKNTVYLQMNSLKPEDTAVYYCAAVIIGGHDYWGQGTQVTVSS,high polyreactivity
8,QVQLVESGGGLVQAGGSLRLSCAASGFTFKINGMGWYRQATGKEREFVATIRTSTGRTNYADSVKGRFTISRDNAKNTVYLQMNSLKPEDTAVYYCAATFKSGMDYWGQGTQVTVSS,high polyreactivity
9,QVQLVESGGGLVQAGGSLRLSCAASGFTFKKNAMGWYRQAPGKERELVAAIRSGTSTKYADSVKGRFTISRDNAKNTVYLQMNSLKPEDTAVYYCAAEEPEYLATWRNRRYDYWGQGTQVTVSS,low polyreactivity
10,QVQLVESGGGLVQAGGSLRLSCAASGFTFKSNAMGWYRQAPGKERELVAAISGSGGRTYYADSVKGRYTISRDTAKYTVYLQMNSLKPEDTAVYYCAADYPVRSYDYWGQGTQVTVSS,low polyreactivity
11,QVQLVESGGGLVQAGGSLRLSCAASGFTFKVYNAMGWYRQAPGKERELVAAISSSVGGTYYADSVKGRFTISRDYAKNTVYLQMNSLKPEDTAVYYCATDDFTYVVAKDGDYWGQGTQVTVSS,low polyreactivity
12,QVQLVESGGGLVQAGGSLRLSCAASGFTFKYNVMGWYIQAPGKERELVAAISSAGNTNYADSVKGRFTISRDNAKNTVYLQMNSLKPEDTAVYFCAKRRDTLYVGVEGYYWGQGTQVTVSS,high polyreactivity
13,QVQLVESGGGLVQAGGSLRLSCAASGFTFKYYAMGWYREAPGKERELVAAISLTGGSTYYADSVKGRFTISRDNAKNTVYFQMHSLIPEDTAVNYCNAVQGRQRGWEGPYGYWGQGTQVTVST,high polyreactivity
14,QVQLVESGGGLVQAGGSLRLSCAASGFTFKYYAMGWYRQAPGKERELVATITRSGGNTYYADSVKGRFTISRDNAKNTVYLQMNSLKPEDTAVYYCNTRRPGKYDYWGQGTQVTVSS,high polyreactivity
15,QVQLVESGGGLVQAGGSLRLSCAASGFTFKYYVMGWYRQAPGKERELVASISKRGGSTRYADSVKGRFTISRDNAKNTVYLQMNSLKPEDTAVYYCAARSKVHRWRKRYDYWGQGTQVSVSS,high polyreactivity
16,QVQLVESGGGLVQAGGSLRLSCAASGFTFLAYAMVWYRQAPGKERELVAAIRWSGGRTYYADSVKGRFTISRDNAKNTVYLQMNSLKPEDTAVYYCAADTRRVREYNYWGQGTQVTVSS,low polyreactivity
17,QVQLVESGGGLVQAGGSLRLSCAASGFTFLGYVMGWYRQAPGKEREFVADITESGGRTYYADSVKGRFTISRDNAKNTVYLQMNSLKPEDTAVYYCAAELSYWGYYYSFDYWGQVTQVTVSS,low polyreactivity
18,QVQLVESGGGLVQAGGSLRLSCAASGFTFLHNAMGWYRQAPGKDRELVAAISYSGGSTYADSVKGRFTISRDNAKYTVYLQMNSLKPEDTADYYCNADYSSQDNFDYWGQGTQVTVSS,low polyreactivity
19,QVQLVESGGGLVQAGGSLRLSCAASGFTFLKNAMGWYRQAPGKERELVAAITGSGGSTYYADSVKGRFTISRDNAKNTVYLQMNSLKPEDTAVYYCNVRRGLRAYEYWGQGTQVTVSS,high polyreactivity
20,QVQLVESGGGLVQAGGSLRLSCAASGFTFLPYVMGWYRQAPGKERELVAAISSSGGSTYYADSVKGRFTISRDNAKNTVYLQMNSLKPEDTAVYYCAKEIGVRRRDYEDYEYWGQGTQVTVSS,low polyreactivity
21,QVQLVESGGGLVQAGGSLRLSCAASGFTFLQYAMGWYRQAPGKERELVATISSGGSTYYADSVKGRFTISRDNAKNTVYLQMNSLTPEDTAVYYCNAEEHFHTYVLHFRPYYVRHDYWGKGTQVTVSS,low polyreactivity
